Positions count from the first letter of the chain named. Where two headings read alike, the source gives them in different places.
Tests used:
full length mouse RYK = target: T1, full length mouse RYK (mouse, UniProt Q01887 35-594); assay: Western blot of RIPA lysates (30 µg per lane) of transfected HEK293 cells, Ab5.5_Var1 at 1 µg/mL, anti-human secondary, LI-COR detection
T1 construct: Expressed from a plasmid (Macheda et al.) in HEK293, and the lysate was probed by Western blot; also called Mus musculus Ryk

[1] = target: T2, wild type peptide LDKNTSRTIYDPVHA (SEQ ID NO:32) (human); assay: peptide microarray substitution scan, Ab5.5_var1 at 100 µg/mL
T2 construct: Printed on a peptide microarray; also called Homo sapiens Ryk(206-220)
T2 peptide: LDKNTSRTIYDPVHA

[2] = target: T3, … variant with 9I exchanged by L (human); assay: as above
T3 construct: Substitution scan peptide
T3 peptide: LDKNTSRTLYDPVHA

[3] = target: T4, peptides with the consensus motif TSRTIYDPV (SEQ ID NO:28) (human); assay: PEPperMAP linear epitope mapping: microarray of 15-mer peptides (14 aa overlap) of human Ryk 134-227, antibody at 10 µg/mL, goat anti-human IgG (Fc) DyLight680
T4 construct: The array spots were adjacent 15-mers of human Ryk 134-227 sharing this motif; also called Homo sapiens Ryk(210-218)
T4 peptide: TSRTIYDPV

[4] = target: T5, peptides with the highly basic consensus motif TVLNFKRRKMCYKK (SEQ ID NO:30) (human); assay: as above
T5 construct: Array spots were 15-mers sharing this motif; also called Homo sapiens Ryk(184-197)
T5 peptide: TVLNFKRRKMCYKK

[5] = target: T6, peptides with the highly basic consensus motif RRKMCYKKLEEVK (SEQ ID NO:31) (human); assay: as above
T6 construct: Array spots were 15-mers sharing this motif; also called Homo sapiens Ryk(190-202)
T6 peptide: RRKMCYKKLEEVK

[6] = target: T7, peptides with the highly basic consensus motif SSKNFTVLNFKRRK (SEQ ID NO:29) (human); assay: as above
T7 construct: Array spots were 15-mers sharing this motif; also called Homo sapiens Ryk(179-192)
T7 peptide: SSKNFTVLNFKRRK

full length human RYK = full length human RYK (human, UniProt P34925 26-607); assay: cell-based or functional assay
[7] = target: … variants with 13V replaced by other amino acids; assay: peptide microarray substitution scan, Ab5.5_var1 at 100 µg/mL
[8] = target: … variants with 8T exchanged by other amino acids; assay: as above
[9] = target: … variants with 12P exchanged by other amino acids; assay: as above
[10] = target: … variants with 7R replaced by other amino acids; assay: as above
[11] = target: T4, peptides with the consensus motif …; assay: PEPperMAP linear epitope mapping: microarray of 15-mer peptides (14 aa overlap) of human Ryk 134-227, antibody at 10 µg/mL, goat anti-human IgG (Fc) DyLight680
[12] = target: T5, peptides with the highly basic …; assay: as above
[13] = target: T6, peptides with the highly basic …; assay: as above
[14] = target: T7, peptides with the highly basic …; assay: as above
[15] = target: T4, peptides with the consensus motif …; assay: PEPperMAP linear epitope mapping: microarray of 15-mer peptides (14 aa overlap) of human Ryk 134-227, antibody at 100 µg/mL, goat anti-human IgG (Fc) DyLight680
[16] = target: T8, peptides with the basic consensus motif VLNFKRRKMCYKK (SEQ ID NO:36) (human); assay: as above
T8 construct: Array spots were 15-mers sharing this motif; also called Homo sapiens Ryk(185-197)
T8 peptide: VLNFKRRKMCYKK

[17] = target: T9, single peptide NSSKNFTVLNFKRRK (SEQ ID NO:35) (human); assay: as above
T9 construct: also called Homo sapiens Ryk(178-192)
T9 peptide: NSSKNFTVLNFKRRK

[18] = target: T6, peptides with the highly basic …; assay: PEPperMAP linear epitope mapping: microarray of 15-mer peptides (14 aa overlap) of human Ryk 134-227, goat anti-human IgG (Fc) DyLight680
[19] = target: … variants with 13V replaced by other amino acids; assay: peptide microarray substitution scan, Ab5.5 at 1 µg/mL
[20] = target: … variants with 8T exchanged by other amino acids; assay: as above
[21] = target: … variants with 12P exchanged by other amino acids; assay: as above
[22] = target: … variants with 10Y exchanged by other amino acids; assay: as above
[23] = target: … variants with 7R replaced by other amino acids; assay: as above
[24] = target: … variants with 11D exchanged by other amino acids; assay: as above
[25] = target: T2, wild type peptide LDKNTSRTIYDPVHA (SEQ …); assay: as above
[26] = target: T3, … variant with 9I exchanged by L; assay: as above

B1: Ab5.5_var1 (antibody, V domains shown)
VH: EVQLVESGGGLVQPGGSLRLSCAASGFTFSSYTMSWIRQAPGKGLEWVAYISNGGGGTYYPDSVKGRFTISRDNAKNTLYLQMNSLRAEDTAVYYCTRHGDNGDYWGHGSLVTVSS
VL: DIQMTQSPSSLSASVGDRVTITCKASQDINSYLSWIQQKPGKAPKTLIYRANRLVDGVPSRFSGSGSGTDYTLTISSLQPEDFATYYCLQYDEFPLTFGAGTKVEIK
notes: Detected with anti-human IgG (Fc); also called variant 1; v1
binding result (full length mouse RYK): binds
binding result [1]: binds
binding result [2]: binds
binding result [3]: binds
binding result [4]: binds
binding result [5]: binds
binding result [6]: binds
IC50 of inhibition of canonical Wnt signaling (luciferase reporter) in HEK 293 STF cells stimulated with 250 ng/mL human Wnt-3a (full length human RYK): 484 µg/mL
% lower spot intensity than the wild type peptide [7]: > 62%
% lower spot intensity than the wild type peptide [8]: 7.5%
% lower spot intensity than the wild type peptide [9]: 35%
% lower spot intensity than the wild type peptide [10]: > 70%

B2: Ab5.5_var2 (antibody, V domains shown)
VH: B1 VH with T78S, H108Q
VL: B1 VL
notes: Detected with anti-human IgG; also called Variant 2; variant 2
binding result [11]: binds
binding result [12]: binds
binding result [13]: binds
binding result [14]: binds

B3: Ab5.5_var10 (antibody, V domains shown)
VH: B1 VH with V48A, N53T, P61V, T78S
VL: B1 VL with V19A, A100G
notes: Detected with anti-human IgG; also called variant 10; v10
binding result [15]: binds
binding result [16]: binds
binding result [17]: binds
binding result [18]: no binding (tested: 100 µg/mL)

B4: Ab5.5 (antibody, V domains shown)
VH: EVKLVESGGDLVQPGGSLKLSCAASGFTFSSYTMSWIRQTPEKRLEWVAYISNGGGGTYYPDTVKGRFTISRDNAKNTLYLQMNSLKSEDTAMYYCTRHGDNGDYWGHGSTLTVSS
VL: DIKMTQSPSSMYASLGERVTITCKASQDINSYLSWIQQKPGKSPKTLIYRANRLVDGVPSRFSGSGSGQDYSLTISSLEYEDMGIYYCLQYDEFPLTFGAGTKLELK
notes: Parental murine variable domains; also called Chimera antibody; Parental
% lower spot intensity than the wild type peptide [19]: > 58%
% lower spot intensity than the wild type peptide [20]: 27%
% lower spot intensity than the wild type peptide [21]: 33%
% lower spot intensity than the wild type peptide [22]: > 83%
% lower spot intensity than the wild type peptide [23]: > 67%
% lower spot intensity than the wild type peptide [24]: > 83%
binding result [25]: binds
binding result [26]: binds
